Test system: PPO-deficient BT3 E. coli (ΔPPO)
Test: PPO-inhibiting herbicide tolerance test of PPO variants in E. coli (growth on herbicide-containing LB agar)
Type: cell-based
Conditions: CyPPO19 variants in BT3 (ΔPPO) E. coli; LB agar with 0 to 2,000 μM herbicide, 37° C., dark, 16-20 hours
Summary of the method: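 PPO-deficient BT3 E. coli expressing each variant from pET303 were diluted to OD600=0.5, then 10-fold serially, and spotted on LB-ampicillin agar with 0 to 2,000 μM herbicide. After 16-20 h at 37° C. in the dark, growth relative to wild type was scored from '−' (equivalent) to '+' per 10-fold resistance, max '+++++'.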

Row | Molecule | tolerance level relative to wild type, Carfentrazone | tolerance level relative to wild type, Flumioxazin | tolerance level relative to wild type, Fomesafen | tolerance level relative to wild type, Oxyfluorfen | tolerance level relative to wild type, Saflufenacil | tolerance level relative to wild type, Sulfentrazone | tolerance level relative to wild type, Tiafenacil
1 | CyPPO19 V305L + F360L: variant of CyPPO19 PPO protein (SEQ ID NO: 1) (protein, Synthetic_PPO of Thermosynechococcus elongatus PKUAC-SCTE542 (comprising GenBank No. CP032152.1)) MSEVDVAIVGGGLSGLSLAWRLQQSAPQYSVVLLEASDRLGGNITTQTAEGFVWELGPNSFAPTPALLQLIAEVGLQSELIRGDRHLPRYIYWRGQLYPLQPTRPLALATSNLLSPWGKVRAALGALGFVPPYLGSGDESVNSFFRRHLGQEVAERLVAPFVSGVYAGDPQQLSAAAAFRRIAQLEKLGGGLIAGALHLRRQQAPKPKPPTSVQMRPGELGSFKEGLAALPRAIAQQLKAPIHLQTPVQEITPDPKGGYLLRSGEQTWRARSVVLATPAYQTAELVAPFQPAIARVLATIPYPTLACVVLAYPAGLGRSVRPGFGVLIPRSQGIRTLGTIWSSCLFPQRTPAGWQVFTSLIGGATDPDLASLSEEAIVQQVQQDLNRLLDLPAAKARLLGMKVWRRAIPQYMVGYPEQWQQVTHALSQTPGLFLCSNYAEGVALGDRVEHGNRTAAAVAAYLSGGQP | + (‘+’ per each 10-fold resistance) | ++++ (‘+’ per each 10-fold resistance) | +++ (‘+’ per each 10-fold resistance) | ++ (‘+’ per each 10-fold resistance) | ++++ (‘+’ per each 10-fold resistance) | ++ (‘+’ per each 10-fold resistance) | ++++ (‘+’ per each 10-fold resistance)
2 | CyPPO19 V305M + F360T: variant of CyPPO19 PPO protein (SEQ ID NO: 1) (protein, Synthetic_PPO of Thermosynechococcus elongatus PKUAC-SCTE542 (comprising GenBank No. CP032152.1)) MSEVDVAIVGGGLSGLSLAWRLQQSAPQYSVVLLEASDRLGGNITTQTAEGFVWELGPNSFAPTPALLQLIAEVGLQSELIRGDRHLPRYIYWRGQLYPLQPTRPLALATSNLLSPWGKVRAALGALGFVPPYLGSGDESVNSFFRRHLGQEVAERLVAPFVSGVYAGDPQQLSAAAAFRRIAQLEKLGGGLIAGALHLRRQQAPKPKPPTSVQMRPGELGSFKEGLAALPRAIAQQLKAPIHLQTPVQEITPDPKGGYLLRSGEQTWRARSVVLATPAYQTAELVAPFQPAIARVLATIPYPTMACVVLAYPAGLGRSVRPGFGVLIPRSQGIRTLGTIWSSCLFPQRTPAGWQVFTSTIGGATDPDLASLSEEAIVQQVQQDLNRLLDLPAAKARLLGMKVWRRAIPQYMVGYPEQWQQVTHALSQTPGLFLCSNYAEGVALGDRVEHGNRTAAAVAAYLSGGQP | + (‘+’ per each 10-fold resistance) | ++ (‘+’ per each 10-fold resistance) | ++ (‘+’ per each 10-fold resistance) | + (‘+’ per each 10-fold resistance) | ++ (‘+’ per each 10-fold resistance) | + (‘+’ per each 10-fold resistance) | ++ (‘+’ per each 10-fold resistance)
3 | CyPPO19 L327T + F360I: variant of CyPPO19 PPO protein (SEQ ID NO: 1) (protein, Synthetic_PPO of Thermosynechococcus elongatus PKUAC-SCTE542 (comprising GenBank No. CP032152.1)) MSEVDVAIVGGGLSGLSLAWRLQQSAPQYSVVLLEASDRLGGNITTQTAEGFVWELGPNSFAPTPALLQLIAEVGLQSELIRGDRHLPRYIYWRGQLYPLQPTRPLALATSNLLSPWGKVRAALGALGFVPPYLGSGDESVNSFFRRHLGQEVAERLVAPFVSGVYAGDPQQLSAAAAFRRIAQLEKLGGGLIAGALHLRRQQAPKPKPPTSVQMRPGELGSFKEGLAALPRAIAQQLKAPIHLQTPVQEITPDPKGGYLLRSGEQTWRARSVVLATPAYQTAELVAPFQPAIARVLATIPYPTVACVVLAYPAGLGRSVRPGFGVTIPRSQGIRTLGTIWSSCLFPQRTPAGWQVFTSIIGGATDPDLASLSEEAIVQQVQQDLNRLLDLPAAKARLLGMKVWRRAIPQYMVGYPEQWQQVTHALSQTPGLFLCSNYAEGVALGDRVEHGNRTAAAVAAYLSGGQP | + (‘+’ per each 10-fold resistance) | ++++ (‘+’ per each 10-fold resistance) | + (‘+’ per each 10-fold resistance) | ++ (‘+’ per each 10-fold resistance) | ++ (‘+’ per each 10-fold resistance) | +++ (‘+’ per each 10-fold resistance) | ++++ (‘+’ per each 10-fold resistance)
4 | CyPPO19 L327T + F360M: variant of CyPPO19 PPO protein (SEQ ID NO: 1) (protein, Synthetic_PPO of Thermosynechococcus elongatus PKUAC-SCTE542 (comprising GenBank No. CP032152.1)) MSEVDVAIVGGGLSGLSLAWRLQQSAPQYSVVLLEASDRLGGNITTQTAEGFVWELGPNSFAPTPALLQLIAEVGLQSELIRGDRHLPRYIYWRGQLYPLQPTRPLALATSNLLSPWGKVRAALGALGFVPPYLGSGDESVNSFFRRHLGQEVAERLVAPFVSGVYAGDPQQLSAAAAFRRIAQLEKLGGGLIAGALHLRRQQAPKPKPPTSVQMRPGELGSFKEGLAALPRAIAQQLKAPIHLQTPVQEITPDPKGGYLLRSGEQTWRARSVVLATPAYQTAELVAPFQPAIARVLATIPYPTVACVVLAYPAGLGRSVRPGFGVTIPRSQGIRTLGTIWSSCLFPQRTPAGWQVFTSMIGGATDPDLASLSEEAIVQQVQQDLNRLLDLPAAKARLLGMKVWRRAIPQYMVGYPEQWQQVTHALSQTPGLFLCSNYAEGVALGDRVEHGNRTAAAVAAYLSGGQP | + (‘+’ per each 10-fold resistance) | +++ (‘+’ per each 10-fold resistance) | + (‘+’ per each 10-fold resistance) | ++ (‘+’ per each 10-fold resistance) | + (‘+’ per each 10-fold resistance) | + (‘+’ per each 10-fold resistance) | +++ (‘+’ per each 10-fold resistance)
5 | CyPPO19 L327T + F360V: variant of CyPPO19 PPO protein (SEQ ID NO: 1) (protein, Synthetic_PPO of Thermosynechococcus elongatus PKUAC-SCTE542 (comprising GenBank No. CP032152.1)) MSEVDVAIVGGGLSGLSLAWRLQQSAPQYSVVLLEASDRLGGNITTQTAEGFVWELGPNSFAPTPALLQLIAEVGLQSELIRGDRHLPRYIYWRGQLYPLQPTRPLALATSNLLSPWGKVRAALGALGFVPPYLGSGDESVNSFFRRHLGQEVAERLVAPFVSGVYAGDPQQLSAAAAFRRIAQLEKLGGGLIAGALHLRRQQAPKPKPPTSVQMRPGELGSFKEGLAALPRAIAQQLKAPIHLQTPVQEITPDPKGGYLLRSGEQTWRARSVVLATPAYQTAELVAPFQPAIARVLATIPYPTVACVVLAYPAGLGRSVRPGFGVTIPRSQGIRTLGTIWSSCLFPQRTPAGWQVFTSVIGGATDPDLASLSEEAIVQQVQQDLNRLLDLPAAKARLLGMKVWRRAIPQYMVGYPEQWQQVTHALSQTPGLFLCSNYAEGVALGDRVEHGNRTAAAVAAYLSGGQP | + (‘+’ per each 10-fold resistance) | ++++ (‘+’ per each 10-fold resistance) | + (‘+’ per each 10-fold resistance) | ++ (‘+’ per each 10-fold resistance) | ++ (‘+’ per each 10-fold resistance) | ++ (‘+’ per each 10-fold resistance) | ++++ (‘+’ per each 10-fold resistance)
6 | CyPPO19 L327T + F360L: variant of CyPPO19 PPO protein (SEQ ID NO: 1) (protein, Synthetic_PPO of Thermosynechococcus elongatus PKUAC-SCTE542 (comprising GenBank No. CP032152.1)) MSEVDVAIVGGGLSGLSLAWRLQQSAPQYSVVLLEASDRLGGNITTQTAEGFVWELGPNSFAPTPALLQLIAEVGLQSELIRGDRHLPRYIYWRGQLYPLQPTRPLALATSNLLSPWGKVRAALGALGFVPPYLGSGDESVNSFFRRHLGQEVAERLVAPFVSGVYAGDPQQLSAAAAFRRIAQLEKLGGGLIAGALHLRRQQAPKPKPPTSVQMRPGELGSFKEGLAALPRAIAQQLKAPIHLQTPVQEITPDPKGGYLLRSGEQTWRARSVVLATPAYQTAELVAPFQPAIARVLATIPYPTVACVVLAYPAGLGRSVRPGFGVTIPRSQGIRTLGTIWSSCLFPQRTPAGWQVFTSLIGGATDPDLASLSEEAIVQQVQQDLNRLLDLPAAKARLLGMKVWRRAIPQYMVGYPEQWQQVTHALSQTPGLFLCSNYAEGVALGDRVEHGNRTAAAVAAYLSGGQP | + (‘+’ per each 10-fold resistance) | ++++ (‘+’ per each 10-fold resistance) | ++ (‘+’ per each 10-fold resistance) | ++ (‘+’ per each 10-fold resistance) | + (‘+’ per each 10-fold resistance) | ++ (‘+’ per each 10-fold resistance) | ++++ (‘+’ per each 10-fold resistance)
